This passage reports chemotaxis of CXCR1-transfected L1.2 cells (modified Boyden chamber, 5 h), serial dilutions of CXCL8, bell-shaped response; percentage of cells migrated and stoichiometry N results from article PMC8519433.

The target in assay [1] is human CXCR1 on transfected L1.2 cells (human) (UniProt P25024).
Assay [2] addresses CXCL8 (6-77), produced in-house (human). Put plainly: SEC-MALS; CXCL8 at 4.2 mg/ml (0.5 mM), Superdex 75 10/300 GL, 20 mM Na phosphate pH 6.5, 100 mM NaCl, room temperature; a single species. Background: Size exclusion chromatography separates by hydrodynamic size, large species first.

human CXCR1 on transfected L1.2 cells (human), sequence (P25024 whole entry): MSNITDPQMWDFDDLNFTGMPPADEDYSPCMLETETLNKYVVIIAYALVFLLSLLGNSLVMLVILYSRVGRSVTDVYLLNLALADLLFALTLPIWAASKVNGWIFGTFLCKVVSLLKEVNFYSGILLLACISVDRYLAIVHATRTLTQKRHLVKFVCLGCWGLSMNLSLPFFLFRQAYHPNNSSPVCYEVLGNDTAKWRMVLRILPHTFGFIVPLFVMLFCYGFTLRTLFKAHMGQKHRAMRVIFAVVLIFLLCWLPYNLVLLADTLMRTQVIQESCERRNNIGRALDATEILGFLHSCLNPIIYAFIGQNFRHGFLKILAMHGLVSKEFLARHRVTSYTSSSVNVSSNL

In general, stoichiometry N refers to the number of molecules, sites or subunits per partner or assembly. “CXCL8 (6-77), produced in-house (ligand)” came in with a chemotaxis of CXCR1-transfected L1.2 cells (modified Boyden chamber, 5 h), serial dilutions of CXCL8, bell-shaped response; percentage of cells migrated at the optimal concentration in assay [1] of 20%. In assay [2], this substance displayed a stoichiometry N of 2.

Regarding “Recombinant CXCL8 (6-77), commercially available (ligand)”, the chemotaxis of CXCR1-transfected L1.2 cells (modified Boyden chamber, 5 h), serial dilutions of CXCL8, bell-shaped response; percentage of cells migrated at the optimal concentration in assay [1] was determined as 20%.
